The values below are quoted from earlier work in PMC8256087.

One may read the Kd as the concentration at which binding is half-saturated.

This data set concerns the target FtsY (Escherichia coli) (UniProt P10121).

Sequence of SecYEG translocon (P0AGA2 whole entry): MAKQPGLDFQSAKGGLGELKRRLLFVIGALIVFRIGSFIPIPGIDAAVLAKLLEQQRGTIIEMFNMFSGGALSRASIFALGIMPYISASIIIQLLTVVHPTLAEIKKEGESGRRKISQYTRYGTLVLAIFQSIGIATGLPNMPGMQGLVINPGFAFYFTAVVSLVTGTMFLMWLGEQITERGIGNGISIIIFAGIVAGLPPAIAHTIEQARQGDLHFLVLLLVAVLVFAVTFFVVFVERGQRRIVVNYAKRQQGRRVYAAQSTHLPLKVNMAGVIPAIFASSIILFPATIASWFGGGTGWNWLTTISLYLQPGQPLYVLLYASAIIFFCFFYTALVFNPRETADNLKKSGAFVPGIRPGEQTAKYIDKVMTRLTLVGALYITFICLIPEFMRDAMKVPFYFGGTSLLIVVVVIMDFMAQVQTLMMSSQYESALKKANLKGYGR
Sequence of SecYEG translocon (P0AG96 whole entry, further chain): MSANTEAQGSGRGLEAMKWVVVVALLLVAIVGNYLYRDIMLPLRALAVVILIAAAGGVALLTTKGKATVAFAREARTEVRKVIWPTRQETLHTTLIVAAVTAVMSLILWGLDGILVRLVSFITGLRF
Sequence of SecYEG translocon (P0AG99 whole entry, further chain): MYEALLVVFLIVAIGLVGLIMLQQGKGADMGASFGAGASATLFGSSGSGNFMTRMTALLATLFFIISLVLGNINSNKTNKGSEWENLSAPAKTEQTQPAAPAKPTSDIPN
Sequence of FtsY (Escherichia coli) (P10121 2-497): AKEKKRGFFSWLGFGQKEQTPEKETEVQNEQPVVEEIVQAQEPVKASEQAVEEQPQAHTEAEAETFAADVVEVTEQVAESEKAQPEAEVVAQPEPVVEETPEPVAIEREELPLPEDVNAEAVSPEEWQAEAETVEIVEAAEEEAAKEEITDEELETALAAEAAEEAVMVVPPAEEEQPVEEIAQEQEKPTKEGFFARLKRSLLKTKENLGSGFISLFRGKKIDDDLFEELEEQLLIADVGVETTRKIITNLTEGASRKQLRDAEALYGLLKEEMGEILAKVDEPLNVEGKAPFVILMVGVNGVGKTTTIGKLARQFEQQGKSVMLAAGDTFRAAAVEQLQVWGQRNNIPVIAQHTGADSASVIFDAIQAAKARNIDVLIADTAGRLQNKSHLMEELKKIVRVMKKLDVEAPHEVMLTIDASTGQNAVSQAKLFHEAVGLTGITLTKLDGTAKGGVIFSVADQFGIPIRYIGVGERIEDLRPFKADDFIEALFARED

With SecYEG translocon (from UniProt P0AGA2), the Kd is 200 nM.
